Data reported in PMC5577506, “Intrinsic disorder in the partitioning protein KorB persists after co-operative complex formation with operator DNA and KorA” (Biochemical Journal, 2017).

Assays:
[1] = target: T1, KorB (ParB family protein from the IncP1 plasmid RK2) (plasmid RK2 (IncP1), UniProt P07674 1-358); test: NMR titration; ^15N-^1H TROSY at 800 MHz of ^15N/^2D KorB (~0.1 mM dimer) titrated with unlabelled KorA (1 and 2 equivalents); 10 mM sodium phosphate pH 7.0, 100 mM NaCl, 0.1 mM EDTA, 30°C; conditions: both partners purified
T1 construct: KorB of plasmid RK2 (IncP1), 358 amino acid residues per subunit, homodimer; also called WT KorB; ^1H-KorB; source: E. coli BL21(λDE3), His-tagged fusion, purified as described previously [21]; also partially deuterated (~70% D2O M9 medium) and ^15N-labelled
T1 sequence (looked up): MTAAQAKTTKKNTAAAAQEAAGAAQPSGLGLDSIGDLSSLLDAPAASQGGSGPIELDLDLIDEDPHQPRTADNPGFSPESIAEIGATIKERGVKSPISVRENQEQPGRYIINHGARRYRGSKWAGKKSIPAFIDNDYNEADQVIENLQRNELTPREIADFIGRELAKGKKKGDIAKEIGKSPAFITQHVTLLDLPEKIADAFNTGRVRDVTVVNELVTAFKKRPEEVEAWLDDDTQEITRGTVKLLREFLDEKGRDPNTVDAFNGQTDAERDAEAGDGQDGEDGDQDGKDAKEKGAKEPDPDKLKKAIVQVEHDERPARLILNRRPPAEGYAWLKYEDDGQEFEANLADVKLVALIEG

[2] = target: KorA (Escherichia coli (expression host); …, UniProt P03052 1-101); test: CD; 1 equivalent KorA; change at 280 nm; Buffer, salt, pH and temperature not given in the material; NMR at 800 MHz; SANS in 0, 65 or 100% D2O; conditions: protein: recombinant; tags: none; chain copies: 2; blunt (only one strand printed; complement implied)
[3] = target: T2, KorB (Escherichia coli (expression host); …, UniProt P07674 1-358); test: CD; 1 equivalent KorB; change at 280 nm; Buffer, salt, pH and temperature not given in the material; NMR at 800 MHz; SANS in 0, 65 or 100% D2O; conditions: protein: recombinant; tags: His-tag; chain copies: 2; blunt (only one strand printed; complement implied)
[4] = target: KorB;KorA (Escherichia coli (expression host); …, UniProt P07674;P03052 1-358;1-101, |); test: NMR (15N-1H TROSY), CD, SANS; ternary KorA/KorB/OAOB complex; Buffer, salt, pH and temperature not given in the material; NMR at 800 MHz; SANS in 0, 65 or 100% D2O; conditions: protein: recombinant;recombinant; tags: His-tag;none; chain copies: 2;2; blunt (only one strand printed; complement implied)
[5] = target: (NΔ150)KorB (Escherichia coli (expression host); …, UniProt P07674 151-358, del1-150); test: SAXS, SANS; complex mass consistent with protein + DNA (67.5 kDa calculated); Buffer, salt, pH and temperature not given in the material; NMR at 800 MHz; SANS in 0, 65 or 100% D2O; conditions: protein: recombinant; tags: His-tag; chain copies: 2; blunt (only one strand printed; complement implied)
[6] = target: T2, KorB; test: NMR (15N-1H TROSY titration), SAXS, SANS; KorB dimer:OB 1:1; DBD and N-terminal peaks lost, CTD unaffected; Buffer, salt, pH and temperature not given in the material; NMR at 800 MHz; SANS in 0, 65 or 100% D2O; conditions: protein: recombinant; tags: His-tag; chain copies: 2; blunt (only one strand printed; complement implied)

B1: KorA (repressor from the plasmid RK2) (natural protein, plasmid RK2 (IncP1), UniProt P03052 1-101, looked up)
chain: MKKRLTESQFQEAIQGLEVGQQTIEIARGVLVDGKPQATFATSLGLTRGAVSQAVHRVWAAFEDKNLPEGYARVTAVLPEHQAYIVRKWEADAKKKQETKR
notes: KorA of plasmid RK2; used as a dimer; the domain scheme runs from residue 1 to 101; also called ^1H-KorA; ^2D-KorA; source: E. coli BL21(λDE3), without a tag, purified as before [14]
With B1 the “stoichiometry N” value [1] was 2 KorA dimers per KorB dimer.

B2: OAOB (dsDNA)
DNA 1: GGACGAGTTTTAGCGGCTAAAGGTGTTGACGTGCGAGAAATGTTTAGCTAAACTTCG
DNA 2: CGAAGTTTAGCTAAACATTTCTCGCACGTCAACACCTTTAGCCGCTAAAACTCGTCC
B2: binds [2]; binds [3]; binds [4].

B3: OB (dsDNA)
DNA 1: CGAGAATTTTAGCGGCTAAAAAGGGC
DNA 2: GCCCTTTTTAGCCGCTAAAATTCTCG
B3: binds [5]; binds [6].
